# Data taken from article PMC8238508, “Protein-based condensation mechanisms drive the assembly of RNA-rich P granules”.
# T1: MEG-3 (wild type) (Caenorhabditis elegans, UniProt Q9TXM1 1-862)
# T1 sequence: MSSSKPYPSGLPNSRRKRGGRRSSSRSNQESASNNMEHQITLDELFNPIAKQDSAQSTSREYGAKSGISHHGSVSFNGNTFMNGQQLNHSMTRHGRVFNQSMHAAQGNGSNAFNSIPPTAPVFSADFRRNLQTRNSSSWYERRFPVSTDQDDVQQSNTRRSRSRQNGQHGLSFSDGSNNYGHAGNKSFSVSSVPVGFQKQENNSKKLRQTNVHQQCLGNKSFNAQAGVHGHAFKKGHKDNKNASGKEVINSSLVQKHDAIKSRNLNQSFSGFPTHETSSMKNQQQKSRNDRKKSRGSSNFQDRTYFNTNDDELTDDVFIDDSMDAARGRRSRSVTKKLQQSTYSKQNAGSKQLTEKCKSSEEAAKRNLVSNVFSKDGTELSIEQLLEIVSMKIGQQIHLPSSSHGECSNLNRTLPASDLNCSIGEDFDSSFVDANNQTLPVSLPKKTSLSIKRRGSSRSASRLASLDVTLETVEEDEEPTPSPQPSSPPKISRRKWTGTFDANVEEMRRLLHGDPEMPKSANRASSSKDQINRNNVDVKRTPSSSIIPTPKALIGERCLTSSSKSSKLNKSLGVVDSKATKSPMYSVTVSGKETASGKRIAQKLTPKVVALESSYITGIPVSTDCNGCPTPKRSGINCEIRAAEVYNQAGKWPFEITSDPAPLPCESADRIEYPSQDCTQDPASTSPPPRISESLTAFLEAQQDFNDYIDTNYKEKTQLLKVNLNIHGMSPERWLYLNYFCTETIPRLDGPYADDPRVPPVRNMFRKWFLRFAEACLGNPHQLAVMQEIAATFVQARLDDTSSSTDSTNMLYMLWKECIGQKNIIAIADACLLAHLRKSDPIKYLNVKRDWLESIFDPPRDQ
# T2: MEG-3 IDR (Caenorhabditis elegans, UniProt Q9TXM1 1-544)
# T2 sequence: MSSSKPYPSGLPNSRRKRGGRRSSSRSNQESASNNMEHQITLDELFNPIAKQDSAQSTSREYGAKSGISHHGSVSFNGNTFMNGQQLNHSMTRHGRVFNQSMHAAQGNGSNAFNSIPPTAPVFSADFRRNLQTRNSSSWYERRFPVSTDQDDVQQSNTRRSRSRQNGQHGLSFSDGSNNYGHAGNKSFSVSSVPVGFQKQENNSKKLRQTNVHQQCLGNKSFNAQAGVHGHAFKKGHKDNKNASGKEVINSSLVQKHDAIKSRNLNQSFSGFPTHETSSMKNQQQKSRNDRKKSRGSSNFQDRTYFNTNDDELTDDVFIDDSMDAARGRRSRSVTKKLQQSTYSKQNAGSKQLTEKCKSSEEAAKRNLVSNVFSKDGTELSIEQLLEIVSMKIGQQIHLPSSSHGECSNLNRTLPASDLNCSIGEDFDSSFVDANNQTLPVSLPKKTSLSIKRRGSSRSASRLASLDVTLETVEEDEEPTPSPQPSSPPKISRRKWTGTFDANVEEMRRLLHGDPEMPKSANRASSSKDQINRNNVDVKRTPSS
# Tests used:
# [1] = target: T1, MEG-3 (wild type); experiment: filter binding; mean and SD computed from four replicate fits: 809.8, 808.8, 661.5, 695.9; Hill model; 50 nM RNA; 3.75 mM HEPES (stock pH 7.4), 150 mM NaCl, 0.9 mM beta-mercaptoethanol, 1.5% glycerol, 10 mM Tris HCl; 30 min, room temperature; nitrocellulose/Hybond-N+ dot blot; settings: protein: recombinant; tags: N-terminal 6xHis (pET28a); label: 3' fluorescein
# [2] = target: T2, MEG-3 IDR; experiment: filter binding; mean and SD computed from four replicate fits: 109.3, 83.64, 103.3, 107.9; Hill model; curve assigned by legend order; 50 nM RNA; 3.75 mM HEPES (stock pH 7.4), 150 mM NaCl, 0.9 mM beta-mercaptoethanol, 1.5% glycerol, 10 mM Tris HCl; 30 min, room temperature; nitrocellulose/Hybond-N+ dot blot; settings: protein: recombinant; tags: N-terminal 6xHis (pET28a); label: 3' fluorescein
binder,measurement,setting,value
UUUUUUUUUUUUUUUUUUUUUUUUUUUUUU (ssRNA) [poly-U(30) (30U)],Kd,[1],744 ± 77 nM
same,Kd,[2],101 ± 12 nM
